# Data taken from paper PMC9073327.
# T1: LHY:MBP (Arabidopsis thaliana, UniProt Q6R0H1 1-645)
# T1 sequence: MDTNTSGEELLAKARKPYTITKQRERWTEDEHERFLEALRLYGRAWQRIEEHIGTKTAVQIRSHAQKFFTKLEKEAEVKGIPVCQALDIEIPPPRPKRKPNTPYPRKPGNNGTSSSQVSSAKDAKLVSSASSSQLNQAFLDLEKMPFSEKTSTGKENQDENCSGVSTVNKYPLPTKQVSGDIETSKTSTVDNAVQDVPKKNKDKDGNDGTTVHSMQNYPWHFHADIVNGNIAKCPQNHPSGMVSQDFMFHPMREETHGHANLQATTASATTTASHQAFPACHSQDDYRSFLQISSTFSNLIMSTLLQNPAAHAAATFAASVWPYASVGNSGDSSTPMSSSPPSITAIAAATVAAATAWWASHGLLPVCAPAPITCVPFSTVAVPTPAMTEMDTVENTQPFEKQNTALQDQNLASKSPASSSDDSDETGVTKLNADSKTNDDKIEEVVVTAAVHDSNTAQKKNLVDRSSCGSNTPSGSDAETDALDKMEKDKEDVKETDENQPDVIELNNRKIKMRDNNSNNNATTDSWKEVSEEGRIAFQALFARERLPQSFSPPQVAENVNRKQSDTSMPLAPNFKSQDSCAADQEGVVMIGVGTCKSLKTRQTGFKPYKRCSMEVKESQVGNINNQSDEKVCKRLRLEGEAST
# Columns and labels:
# LHY:MBP [1] = target: T1, LHY:MBP; test: EMSA
# LHY:MBP;WRKY2:HIS = LHY:MBP;WRKY2:HIS (Arabidopsis thaliana;Arabidopsis …, UniProt Q6R0H1;Q9FG77 1-645;1-687, |); test: EMSA
# LHY:MBP;WRKY2:HIS, sequence (Q9FG77 whole entry, one chain of several): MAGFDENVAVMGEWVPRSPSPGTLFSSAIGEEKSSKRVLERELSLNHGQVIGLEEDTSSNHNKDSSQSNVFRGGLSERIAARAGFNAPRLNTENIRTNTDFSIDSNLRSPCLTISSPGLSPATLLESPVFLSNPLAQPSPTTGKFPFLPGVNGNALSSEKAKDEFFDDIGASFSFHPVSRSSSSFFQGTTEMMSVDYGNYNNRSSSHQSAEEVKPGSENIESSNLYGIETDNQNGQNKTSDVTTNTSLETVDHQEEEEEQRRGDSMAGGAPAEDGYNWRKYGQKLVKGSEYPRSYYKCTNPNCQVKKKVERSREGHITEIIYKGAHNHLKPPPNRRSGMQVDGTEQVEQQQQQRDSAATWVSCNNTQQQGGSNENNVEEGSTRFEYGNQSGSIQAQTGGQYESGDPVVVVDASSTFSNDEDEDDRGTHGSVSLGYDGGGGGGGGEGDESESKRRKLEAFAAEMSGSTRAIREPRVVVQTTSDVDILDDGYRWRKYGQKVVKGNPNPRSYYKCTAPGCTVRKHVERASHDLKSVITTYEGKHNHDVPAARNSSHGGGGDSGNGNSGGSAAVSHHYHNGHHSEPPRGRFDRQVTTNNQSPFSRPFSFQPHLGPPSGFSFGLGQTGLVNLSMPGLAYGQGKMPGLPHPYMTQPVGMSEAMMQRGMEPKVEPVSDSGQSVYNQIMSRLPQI
# LHY:MBP;WRKY10:MYC = LHY:MBP;WRKY10:MYC (Arabidopsis thaliana;Arabidopsis …, UniProt Q6R0H1;Q9LG05 1-645;1-485, |); test: EMSA
# LHY:MBP;WRKY10:MYC, sequence (Q9LG05 whole entry, one chain of several): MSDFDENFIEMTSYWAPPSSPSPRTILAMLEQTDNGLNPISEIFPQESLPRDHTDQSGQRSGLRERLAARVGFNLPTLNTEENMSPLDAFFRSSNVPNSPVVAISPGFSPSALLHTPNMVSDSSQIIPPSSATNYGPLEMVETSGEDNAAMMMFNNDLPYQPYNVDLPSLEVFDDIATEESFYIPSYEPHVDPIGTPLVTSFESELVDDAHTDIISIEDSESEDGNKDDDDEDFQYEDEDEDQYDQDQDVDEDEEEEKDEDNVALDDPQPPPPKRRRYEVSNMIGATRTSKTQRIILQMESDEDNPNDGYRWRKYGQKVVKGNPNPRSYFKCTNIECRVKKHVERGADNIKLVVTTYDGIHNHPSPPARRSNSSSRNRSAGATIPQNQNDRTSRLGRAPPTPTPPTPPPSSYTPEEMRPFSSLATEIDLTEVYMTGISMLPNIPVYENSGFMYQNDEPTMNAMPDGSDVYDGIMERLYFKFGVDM
# CCA1:MBP [2] = target: T2, CCA1:MBP (Arabidopsis thaliana, UniProt P92973 1-608); test: EMSA
# T2 sequence (P92973 whole entry): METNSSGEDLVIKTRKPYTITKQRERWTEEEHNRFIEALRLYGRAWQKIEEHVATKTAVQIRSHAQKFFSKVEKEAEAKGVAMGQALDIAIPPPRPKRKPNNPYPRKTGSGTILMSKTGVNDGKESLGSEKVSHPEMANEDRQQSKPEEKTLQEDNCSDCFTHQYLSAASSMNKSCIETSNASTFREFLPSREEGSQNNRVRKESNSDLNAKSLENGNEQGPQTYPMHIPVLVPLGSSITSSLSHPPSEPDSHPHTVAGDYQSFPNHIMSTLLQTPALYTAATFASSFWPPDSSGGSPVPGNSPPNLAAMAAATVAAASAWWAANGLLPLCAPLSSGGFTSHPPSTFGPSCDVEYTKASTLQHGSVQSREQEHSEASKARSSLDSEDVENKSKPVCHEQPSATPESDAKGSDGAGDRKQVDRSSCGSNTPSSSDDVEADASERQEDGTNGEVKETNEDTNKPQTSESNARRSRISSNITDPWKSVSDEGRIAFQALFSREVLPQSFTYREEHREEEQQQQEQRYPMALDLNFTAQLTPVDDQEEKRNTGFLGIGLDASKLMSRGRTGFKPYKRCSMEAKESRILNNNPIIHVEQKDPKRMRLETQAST
# CCA1:MBP [3] = target: T2, CCA1:MBP; test: competition
# LHY:MBP [4] = target: T1, LHY:MBP; test: competition
# WRKY2:HIS [5] = target: T3, WRKY2:HIS (Arabidopsis thaliana (Col), UniProt Q9FG77 1-687); test: competition
# T3 sequence (Q9FG77 whole entry): as the sequence (Q9FG77 whole entry, one chain of several) above
# WRKY10:MYC [6] = target: T4, WRKY10:MYC (Arabidopsis thaliana (Col), UniProt Q9LG05 1-485); test: competition
# T4 sequence (Q9LG05 whole entry): as the sequence (Q9LG05 whole entry, one chain of several) above
# WRKY2:HIS [7] = target: T3, WRKY2:HIS; test: EMSA
# WRKY10:MYC [8] = target: T4, WRKY10:MYC; test: EMSA
binder,measurement,setting,value
PIF4 M1-box probe (4M1) (dsDNA) DNA 1: ATCTCCCTCGCTGTAATATCTTTATGCTCCTGTCACT DNA 2: AGTGACAGGAGCATAAAGATATTACAGCGAGGGAGAT,binding result,LHY:MBP [1],binds
same,binding result,LHY:MBP;WRKY2:HIS,binds
same,binding result,LHY:MBP;WRKY10:MYC,binds
same,binding result,CCA1:MBP [2],binds
PIF4 M1-box mutant competitor (4M1 mut) (dsDNA) DNA 1: ATCTCCCTCGCTGTAATTGCTTTATGCTCCTGTCACT DNA 2: AGTGACAGGAGCATAAAGCAATTACAGCGAGGGAGAT,binding result,CCA1:MBP [3],no binding
same,binding result,LHY:MBP [4],no binding
PIF4 W1-box mutant competitor (4W1 mut) (dsDNA) DNA 1: CTATAGATGATTGTGATGGTGTGAAAACACCCTCAAATCA DNA 2: TGATTTGAGGGTGTTTTCACACCATCACAATCATCTATAG,binding result,WRKY2:HIS [5],no binding
same,binding result,WRKY10:MYC [6],no binding
PIF4 W1-box probe (4W1) (dsDNA) DNA 1: CTATAGATGATTGTGATTTGACAAAAACACCCTCAAATCA DNA 2: TGATTTGAGGGTGTTTTTGTCAAATCACAATCATCTATAG,binding result,WRKY2:HIS [7],binds
same,binding result,WRKY10:MYC [8],binds
